Data from patent publication US20220033522A1 (Janssen / Centocor, published 2022).
Where two headings read alike, the source gives them in different places.

Experiments:
[1] = molecular target: T1, polymeric immunoglobulin receptor (pIgR), his-tagged (human, UniProt P01833 19-638); assay: BLI (Octet), his-tagged pIgR on anti-His biosensor
[2] = molecular target: T2, biotinylated SARS-CoV-2 spike glycoprotein (SARS-CoV-2, UniProt P0DTC2 16-1213)
[3] = molecular target: T3, SARS-CoV-2 spike glycoprotein (his-tagged SARS-CoV-2 RBD) (SARS-CoV-2, UniProt P0DTC2 319-541); assay: BLI (Octet), his-tagged SARS-CoV-2 RBD on anti-His biosensor
T3 construct: domain: RBD; also called COVID-19 RBD; wild-type spike glycoprotein

[4] = molecular target: T1, polymeric immunoglobulin receptor …; assay: BLI (Octet): his-tagged pIgR on anti-His (HIS2) biosensors, protein in solution at 10 µg/mL, 90 s association, 90 s dissociation
[5] = molecular target: T2, biotinylated SARS-CoV-2 spike …; remark: listed apart in the source

T1 sequence (P01833 19-638 limits assumed): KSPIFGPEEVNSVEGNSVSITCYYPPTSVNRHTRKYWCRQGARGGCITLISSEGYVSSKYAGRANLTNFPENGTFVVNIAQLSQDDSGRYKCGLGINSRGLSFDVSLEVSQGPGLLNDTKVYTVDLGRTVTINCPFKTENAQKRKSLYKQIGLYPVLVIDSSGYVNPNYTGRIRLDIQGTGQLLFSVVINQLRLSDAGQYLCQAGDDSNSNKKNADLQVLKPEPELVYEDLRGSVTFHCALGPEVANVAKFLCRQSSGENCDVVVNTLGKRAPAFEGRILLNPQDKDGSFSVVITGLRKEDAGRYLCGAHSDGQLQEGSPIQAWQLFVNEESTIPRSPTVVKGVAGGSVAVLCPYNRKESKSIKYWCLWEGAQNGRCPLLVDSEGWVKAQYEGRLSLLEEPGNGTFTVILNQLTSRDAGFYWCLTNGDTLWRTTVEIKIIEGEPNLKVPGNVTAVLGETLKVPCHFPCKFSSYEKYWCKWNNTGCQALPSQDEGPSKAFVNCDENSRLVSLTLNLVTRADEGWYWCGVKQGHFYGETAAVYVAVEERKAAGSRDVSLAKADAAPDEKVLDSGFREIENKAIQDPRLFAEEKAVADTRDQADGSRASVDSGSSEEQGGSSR

Row | Binder | binding result [1] | IC50 [2] [pM] | Kd [3] [pM] | Relative Kd (compared to CR3022) [3] | koff [3] [s⁻¹] | binding result [4] | IC50 [5] [pM]
1 | CR3022 (antibody) heavy: not shown light: […] | no binding (tested: 10 µg/mL) |  |  |  |  |  | 
2 | SAD-S35 (antibody, human IgG1, kappa, V domains shown, also called Acro Biosystems cat. #SAD-S35) VH: QVQLVESGGGLVQPGGSLRLSCAASGITVSSNYMSWVRQAPGKGLEWVSVIYSGGSTYYADSVKGRFSISRDNSKNTLYLQMNSLRAEDTAVYYCARDLQERGGMDVWGQGTTVTVSS VL: not shown |  | 323 | 14300 | 12 | 8.91e-06 |  | 
3 | D001 (antibody, V domains shown, also called Sino Biological cat. #40150-D001) VH: QVQLQQSGPELMKPGASVKISCKASGYSFTNYYIHWVKQSHGKSLEWIGYIDPFNGGTSDNLKFKGAATLTVDKSSSTAYMHLSSLTSEDSAVYYCARSEYDPYYVMDYWGQGTSVTVSS VL: EIVLTQSPDTLSVTPGDSVSLSCRASQSISSNLHWYQQKSHESPRLLIKYASQSISGIPSRFSGSGSGTDFTLSINSVETEDFGIYFCQQTNFWPYTFGGGTKLEIKR |  | 299 | 15000 |  | 1.1e-05 | no binding (tested: 10 µg/mL) | 200
